Numbering of substitutions follows the chain as printed.
B1: Fab 8 (Fab, V domains shown)
VH: QVTLKESGPGILQSSQTLSLTCSLSGFSLRTSGMSVSWIRQSSGKGLEWLAHIYWDDDKRYNPSLRNRLTISKDTLRNQVFLKITSVGTADTATYYCARRAITTVIGGGTMDYWGQGTSVTVSS
VL: QIVLTQSPAIMSASPGEKVTMTCSASSSVSYMHWYQQKSGTSPKRWIYDTSKLASGVPARFSGSGSGTSYSLTISSMEAEDAATYYCQQWSSNPLTFGAGTKLELKR
notes: Mouse Fab, kappa light chain; also called anti-myostatin Fab 8
B2: Fab 3 (Fab, V domains shown)
VH: B1 VH
VL: B1 VL with V29I, S39P, S91Y
notes: Mouse Fab from a Biosite Omniclonal library, kappa light chain (detected or captured with goat anti-mouse kappa); also called anti-myostatin Fab 3
B3: Fab 5 (Fab, V domains shown)
VH: B1 VH with L24F, R30S, N67S, L76S, G88D, A101G, I106L
VL: B1 VL with I2V, P15L, S30H
notes: Mouse Fab, kappa light chain; also called anti-myostatin Fab 5
B4: Fab 10 (Fab, V domains shown)
VH: B1 VH with S14P, K59E
VL: B1 VL with I2V, V29I, S39P, S91Y
notes: Mouse Fab, kappa light chain; also called anti-myostatin Fab 10
B5: Fab 11 (Fab, V domains shown)
VH: B1 VH
VL: B1 VL with V29I, S39P, S91N
notes: Mouse Fab, kappa light chain; also called anti-myostatin Fab 11
B6: Fab 12 (Fab, V domains shown)
VH: B1 VH with I11M
VL: B1 VL with I2V, S30Y, K38R, T41A, S91T, S92Y
notes: Mouse Fab, kappa light chain; also called anti-myostatin Fab 12
B7: Fab 14 (Fab, V domains shown)
VH: B1 VH
VL: B1 VL with S39P, S91Y
notes: Mouse Fab, kappa light chain; also called anti-myostatin Fab 14
B8: Fab 15 (Fab, V domains shown)
VH: B1 VH
VL: B1 VL with K18E, V29I, S30N, S91N, A99G
notes: Mouse Fab, kappa light chain; also called anti-myostatin Fab 15
B9: Fab 7 (Fab, V domains shown)
VH: QVTLKSGPGILQSSQTLTLTCSLSGFSLTTSGMIVSWIRQSSGRGLEWLAHIYWDDDKRYNPSLRNRLTISKDTLRNQVFLWISSVGTADTATYYCARRAITTVIGGGTMDYWGQGTSVTVSS
VL: B1 VL with V29I, S39P, S91Y
notes: Mouse Fab, kappa light chain; also called anti-myostatin Fab 7

Molecular target: T1, peptide immunogen ANYCSGESEFVFLQKYPHTHLVHQA (human)
T1 construct: For immunization it was conjugated to KLH and a helper T-cell peptide; also called immunogenic peptide; immunogenic polypeptide
T1 peptide: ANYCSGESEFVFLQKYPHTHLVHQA
Test: ELISA, peptide coated at 2 ug/ml, Fab 0.016-10 ug/ml
Protocol: Each well of two 96-well plates is coated with 70 μl of the peptide immunogen used to generate the Fabs (2 μg/ml in carbonate buffer, pH 9.6). The plates are incubated in a dry oven at 37° C. overnight with the lids removed. The wells are aspirated and washed twice with washing buffer (20 mM Tris (hydroxymethyl) aminomethane, pH 7.4, 0.15 M NaCl, 0.1% Tween-20). The plates are blocked with 200 μl blocking buffer per well (5% BioRad blotting grade milk in the above washing buffer) for 2.5 hours.
The Fabs are diluted into blocking buffer at 10 μg/ml, 2 μg/ml, 0.4 μg/ml, 0.08 μg/ml, and 0.016 μg/ml. A rat anti-myostatin monoclonal antibody (R&D Systems, catalog #MAB788, clone #84214) and a polyclonal anti-myostatin antibody (R&D Systems, catalog #AF788), are used as controls at the above concentrations and are also diluted in blocking buffer. Fifty microliters of each antibody solution is added to the peptide-coated wells in duplicate. The plates are incubated for 1.5 hours at room temperature. The wells are then washed 3 times with washing buffer.
Peroxidase-conjugated secondary antibody (50 μl goat anti-mouse kappa HRP (Southern Biotech) for Fabs, 50 μl mouse anti-rat (Jackson ImmunoResearch) for monoclonal, 50 μl rabbit anti-goat (Jackson ImmunoResearch) for polyclonal, all diluted 1:2000 in blocking buffer is added to each well and incubated for 1 hour at room temperature. The wells are then washed 3 times with washing buffer. Fifty microliters of chromogenic substrate (i.e., OPD substrate) is added to each well and allowed to develop at room temperature for 10 minutes. The reaction is stopped by adding 100 μl 1N HCl to each well. The absorbance of the wells is read at 490 nm.

binding result | Binder
binds | B1
binds | B2
binds | B3
binds | B4
binds | B5
binds | B6
binds | B7
binds | B8

molecular target: T2, IGF-1 (R&D Systems 291-G1) (UniProt P05019 49-118); test: ELISA, growth factor coated at 10 ug/ml, Fab at 10 ug/ml, mean of duplicate wells
T2 construct: Negative control antigen
Protocol: (§1) Peroxidase-conjugated secondary antibody (50 μl goat anti-mouse kappa HRP (Southern Biotech) for the Fabs, 50 μl rabbit anti-goat (Jackson ImmunoResearch) for the polyclonal, diluted 1:2000 in blocking buffer) is added to each well and incubated for 1 hour at room temperature. The wells are then washed 3 times with washing buffer. Fifty microliters of chromogenic substrate (i.e., OPD substrate) is added to each well and allowed to develop at room temperature for 10 minutes. The reaction is stopped by adding 100 μl 1N HCl to each well. The absorbance of the wells is read at 490 nm.

T2 sequence (P05019 49-118 limits assumed): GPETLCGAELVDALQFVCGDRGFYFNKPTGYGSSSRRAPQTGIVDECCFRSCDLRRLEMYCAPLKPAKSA

absorbance at 490 nm [OD 490 nm] | Binder
0.034 | B2
0.035 | B3
0.034 | B9

molecular target: T3, TGF-beta2 (Peprotech, Inc. 100-35) (UniProt P61812 303-414); test: as above
T3 construct: also called TGF-b2
T3 sequence (looked up): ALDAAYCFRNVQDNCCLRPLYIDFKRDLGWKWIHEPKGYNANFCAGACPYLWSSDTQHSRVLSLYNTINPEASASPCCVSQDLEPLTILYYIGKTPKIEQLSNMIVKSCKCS
Protocol: as §1

absorbance at 490 nm [OD 490 nm] | Binder
0.034 | B2
0.034 | B3
0.0345 | B9

molecular target: T4, BMP-6 (R&D Systems 507-BP) (UniProt P22004 382-513, limits assumed); test: as above
T4 sequence (looked up): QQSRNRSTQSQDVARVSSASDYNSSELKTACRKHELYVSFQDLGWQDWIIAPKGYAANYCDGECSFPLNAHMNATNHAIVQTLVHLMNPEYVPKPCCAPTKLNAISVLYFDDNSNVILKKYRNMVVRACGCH
Protocol: as §1

absorbance at 490 nm [OD 490 nm] | Binder
0.0335 | B2
0.0325 | B3
0.035 | B9

molecular target: T5, BMP-5 (R&D Systems 615-BM) (UniProt P22003 317-454, limits assumed); test: as above
T5 sequence (looked up): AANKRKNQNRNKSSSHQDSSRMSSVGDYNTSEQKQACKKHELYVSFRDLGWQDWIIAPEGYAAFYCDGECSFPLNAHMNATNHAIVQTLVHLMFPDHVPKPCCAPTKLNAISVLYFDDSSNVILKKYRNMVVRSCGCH
Protocol: as §1

absorbance at 490 nm [OD 490 nm] | Binder
0.034 | B2
0.033 | B3
0.0345 | B9

molecular target: T6, BMP-7 (R&D Systems 354-BP) (UniProt P18075 293-431); test: as above
T6 sequence (looked up): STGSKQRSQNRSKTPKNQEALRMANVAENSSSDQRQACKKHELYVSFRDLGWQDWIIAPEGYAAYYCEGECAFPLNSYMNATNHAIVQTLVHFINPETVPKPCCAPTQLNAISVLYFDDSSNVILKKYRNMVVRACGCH
Protocol: as §1

absorbance at 490 nm [OD 490 nm] | Binder
0.033 | B2
0.032 | B3
0.031 | B9

molecular target: T7, TGF-beta1 (Peprotech, Inc. 100-21R) (UniProt P01137 279-390); test: as above
T7 construct: also called TGF-b1
Protocol: as §1

T7 sequence (P01137 279-390 limits assumed): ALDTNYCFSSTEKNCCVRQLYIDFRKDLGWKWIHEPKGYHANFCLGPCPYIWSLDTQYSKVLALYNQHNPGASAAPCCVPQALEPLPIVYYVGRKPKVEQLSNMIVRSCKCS

absorbance at 490 nm [OD 490 nm] | Binder
0.034 | B2
0.0325 | B3
0.032 | B9

molecular target: T8, recombinant human GDF-11 (Peprotech, Inc., Cat. # 120-11, carrier-free) (human, UniProt O95390 299-407); test: as above
T8 construct: also called BMP-11
T8 sequence (looked up): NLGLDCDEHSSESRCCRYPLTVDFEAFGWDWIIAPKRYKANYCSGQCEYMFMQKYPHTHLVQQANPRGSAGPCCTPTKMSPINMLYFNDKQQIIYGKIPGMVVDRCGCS
Protocol: as §1

absorbance at 490 nm [OD 490 nm] | Binder
0.0705 | B2
0.034 | B3
0.04 | B9

molecular target: T9, recombinant mouse myostatin (R&D systems, Cat. #788-G8/CF, carrier-free) (mouse, UniProt O08689 268-376); test: as above
T9 construct: mature; also called GDF-8; GDF-8/myostatin
T9 sequence (looked up): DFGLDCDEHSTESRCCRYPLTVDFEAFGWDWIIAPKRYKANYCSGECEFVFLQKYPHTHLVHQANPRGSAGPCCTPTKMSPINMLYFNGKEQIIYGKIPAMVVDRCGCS
Protocol: as §1

absorbance at 490 nm [OD 490 nm] | Binder
0.419 | B2
0.202 | B3
0.358 | B9

molecular target: T10, Activin B (R&D Systems 659-AB) (UniProt P09529 293-407); test: as above
T10 sequence (looked up): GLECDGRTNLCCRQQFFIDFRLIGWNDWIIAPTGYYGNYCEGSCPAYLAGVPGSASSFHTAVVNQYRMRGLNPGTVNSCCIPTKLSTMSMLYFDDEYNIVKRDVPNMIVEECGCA
Protocol: as §1

absorbance at 490 nm [OD 490 nm] | Binder
0.032 | B2
0.033 | B3
0.031 | B9

molecular target: BMP-2 (R&D Systems 355-BEC/CF) (UniProt P12643 283-396); test: as above
Protocol: as §1

Sequence of BMP-2 (R&D Systems 355-BEC/CF) (P12643 283-396 limits assumed): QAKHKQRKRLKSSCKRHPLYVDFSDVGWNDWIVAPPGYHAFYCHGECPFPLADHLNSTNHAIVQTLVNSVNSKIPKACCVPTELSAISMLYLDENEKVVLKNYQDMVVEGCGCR

absorbance at 490 nm [OD 490 nm] | Binder
0.0345 | B2
0.032 | B3
0.0335 | B9

molecular target: T11, Activin A (R&D Systems 338-AC) (UniProt P08476 311-426); test: as above
T11 sequence (looked up): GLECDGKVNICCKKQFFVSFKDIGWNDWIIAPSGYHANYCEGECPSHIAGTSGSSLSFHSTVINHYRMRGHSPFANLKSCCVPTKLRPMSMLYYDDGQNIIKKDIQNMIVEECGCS
Protocol: as §1

absorbance at 490 nm [OD 490 nm] | Binder
0.033 | B2
0.033 | B3
0.0325 | B9

molecular target: TGF-alpha (R&D Systems 239-A) (UniProt P01135 40-89); test: as above
Protocol: as §1

Sequence of TGF-alpha (R&D Systems 239-A) (P01135 40-89 limits assumed): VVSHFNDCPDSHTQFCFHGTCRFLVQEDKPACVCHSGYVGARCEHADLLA

absorbance at 490 nm [OD 490 nm] | Binder
0.033 | B2
0.033 | B3
0.0315 | B9
